Reference: US20220135684A1 (Xencor, published 2022)
Numbering of substitutions follows the chain as printed. Numbers in names are those of the source. Each block holds one binder with its values, some of them ahead of it.

Key:
[1] = target: T1, cell-surface CD28 on human PBMCs (human, UniProt P10747 19-220); assay: flow cytometry on human PBMCs, anti-human Fc secondary
T1 construct: whole, on cells

human CD28 [2] = target: T2, human CD28 (human, UniProt P10747 19-152); assay: Octet (BLI), scFv arm in the bsAb; value told in the text
T2 construct: also called Cluster of Differentiation 28; Tp44

human CD28 [3] = target: T2, human CD28; assay: Octet (BLI), scFv arm in a bsAb; value told in the text
human PDL1 antigen [4] = target: T3, human PDL1 antigen (human, UniProt Q9NZQ7 19-238); assay: Biacore (SPR), Fab arm in a bsAb; value told in the text
T3 construct: they are put here

human PDL1 antigen [5] = target: T3, human PDL1 antigen; assay: Biacore (SPR), Fab arm in the bsAb; value told in the text

B3: XENP37561 (bispecific antibody)
heavy: EVQLLESGGGLVQPGGSLRLSCAASGFTFSSYDMSWVRQAPGKRLEWVSTISSGGSFTHYPDSVKGRFTISRDNSKNTLYLQMNSLRAEDTAVYYCVRRSGDWYFDVWGAGTTVTVSSASTKGPSVFPLAPSSKSTSGGTAALGCLVKDYFPEPVTVSWNSGALTSGVHTFPAVLQSSGLYSLSSVVTVPSSSLGTQTYICNVNHKPSDTKVDKKVEPKSCDKTHTCPPCPAPPVAGPSVFLFPPKPKDTLMISRTPEVTCVVVDVKHEDPEVKFNWYVDGVEVHNAKTKPREEEYNSTYRVVSVLTVLHQDWLNGKEYKCKVSNKALPAPIEKTISKAKGQPREPQVYTLPPSREEMTKNQVSLTCDVSGFYPSDIAVEWESDGQPENNYKTTPPVLDSDGSFFLYSKLTVDKSRWEQGDVFSCSVMHEALHNHYTQKSLSLSPGK
scFv-Fc: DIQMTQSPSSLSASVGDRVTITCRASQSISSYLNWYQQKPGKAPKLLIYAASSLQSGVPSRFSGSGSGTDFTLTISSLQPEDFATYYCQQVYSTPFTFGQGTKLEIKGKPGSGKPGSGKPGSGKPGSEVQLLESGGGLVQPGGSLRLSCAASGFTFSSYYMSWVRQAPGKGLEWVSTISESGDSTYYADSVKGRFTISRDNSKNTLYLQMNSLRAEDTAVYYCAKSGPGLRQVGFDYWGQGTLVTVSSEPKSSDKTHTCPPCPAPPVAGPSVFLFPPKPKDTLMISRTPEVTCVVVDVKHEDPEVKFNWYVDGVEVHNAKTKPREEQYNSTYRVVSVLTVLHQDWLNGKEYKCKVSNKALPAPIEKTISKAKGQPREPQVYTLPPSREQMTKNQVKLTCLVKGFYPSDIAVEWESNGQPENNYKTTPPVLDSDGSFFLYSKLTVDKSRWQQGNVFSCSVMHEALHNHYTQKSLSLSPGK
light: EIVLTQSPGTLSLSPGERATLSCRVSSSISSSNLHWYQQKPGQSPRPLIYGTSNLASGVPVRFSGSGSGTDYTLTISRLEPEDFAVYYCQQWSSYPLYTFGGGTKVEIKRTVAAPSVFIFPPSDEQLKSGTASVVCLLNNFYPREAKVQWKVDNALQSGNSQESVTEQDSKDSTYSLSSTLTLSKADYEKHKVYACEVTHQGLSSPVTKSFNRGEC
notes: 1+1 Fab-scFv-Fc format; scFv in VL-linker-VH orientation; also called αPDL1×αCD28 bsAb; 1A7_L1.71_H1.14
Kd (human CD28 [2]): 37 nM

B4: XENP37261 (bispecific antibody)
heavy: B3 heavy
scFv-Fc: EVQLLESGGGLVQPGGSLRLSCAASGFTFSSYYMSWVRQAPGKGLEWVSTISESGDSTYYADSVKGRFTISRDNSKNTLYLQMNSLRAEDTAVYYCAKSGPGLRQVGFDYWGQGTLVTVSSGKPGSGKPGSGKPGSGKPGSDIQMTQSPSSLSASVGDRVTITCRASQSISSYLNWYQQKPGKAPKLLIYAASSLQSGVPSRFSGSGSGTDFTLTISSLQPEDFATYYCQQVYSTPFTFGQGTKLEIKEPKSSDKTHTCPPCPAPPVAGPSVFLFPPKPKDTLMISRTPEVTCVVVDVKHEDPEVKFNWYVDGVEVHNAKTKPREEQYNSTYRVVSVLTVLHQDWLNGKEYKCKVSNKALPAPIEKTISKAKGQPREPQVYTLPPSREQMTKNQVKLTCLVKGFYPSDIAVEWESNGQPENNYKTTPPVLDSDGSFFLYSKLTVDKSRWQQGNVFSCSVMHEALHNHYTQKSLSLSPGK
light: B3 light
notes: 1+1 Fab-scFv-Fc format; also called αPDL1×αCD28 bsAb; 1A7_H1.14_L1.71
Kd (human CD28 [3]): 37 nM
Kd (human CD28 [2]): 36 nM

B5: αPDL1×αCD28 bsAb with PDL1 binding domain 2G4_H1.12_L1.66 and CD28 binding domain 1A7_H1.14_L1.71 (bispecific antibody)
heavy: B3 heavy with S31V, G101L
scFv-Fc: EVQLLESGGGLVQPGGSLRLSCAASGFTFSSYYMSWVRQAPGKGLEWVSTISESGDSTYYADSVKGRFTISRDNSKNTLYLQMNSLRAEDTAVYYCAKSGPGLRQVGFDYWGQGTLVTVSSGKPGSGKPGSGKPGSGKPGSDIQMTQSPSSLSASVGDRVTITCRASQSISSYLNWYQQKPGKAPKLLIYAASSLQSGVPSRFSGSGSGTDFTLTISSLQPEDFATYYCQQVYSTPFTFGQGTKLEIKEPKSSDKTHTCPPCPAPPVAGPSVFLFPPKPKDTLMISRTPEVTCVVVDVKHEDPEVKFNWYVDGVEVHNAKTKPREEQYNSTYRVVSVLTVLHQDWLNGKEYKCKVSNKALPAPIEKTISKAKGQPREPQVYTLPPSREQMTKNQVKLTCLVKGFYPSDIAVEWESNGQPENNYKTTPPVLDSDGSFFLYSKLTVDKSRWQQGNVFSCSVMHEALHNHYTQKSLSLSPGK
light: B3 light with S30Q, S32T, S57T
Kd (human PDL1 antigen [4]): 0.86 nM

B6: XENP37412 (bispecific antibody)
heavy: B3 heavy
scFv-Fc: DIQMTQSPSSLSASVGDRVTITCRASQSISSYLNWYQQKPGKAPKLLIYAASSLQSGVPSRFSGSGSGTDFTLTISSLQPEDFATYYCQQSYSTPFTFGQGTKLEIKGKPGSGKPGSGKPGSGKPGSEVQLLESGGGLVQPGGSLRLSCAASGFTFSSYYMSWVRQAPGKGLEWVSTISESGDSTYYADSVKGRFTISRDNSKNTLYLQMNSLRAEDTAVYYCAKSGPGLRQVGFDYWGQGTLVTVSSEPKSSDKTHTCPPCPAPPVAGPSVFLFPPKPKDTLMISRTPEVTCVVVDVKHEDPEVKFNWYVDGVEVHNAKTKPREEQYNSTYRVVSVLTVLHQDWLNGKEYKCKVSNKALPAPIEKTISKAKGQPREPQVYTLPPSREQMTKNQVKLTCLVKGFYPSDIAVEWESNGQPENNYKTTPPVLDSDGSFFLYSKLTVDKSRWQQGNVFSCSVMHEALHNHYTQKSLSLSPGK
light: B3 light
notes: 1+1 Fab-scFv-Fc format; scFv in VL-linker-VH orientation; also called αPDL1×αCD28 bsAb; 1A7_L1_H1.14
Kd (human CD28 [2]): 286 nM

B8: XENP36233 (bispecific antibody)
heavy: B3 heavy
scFv-Fc: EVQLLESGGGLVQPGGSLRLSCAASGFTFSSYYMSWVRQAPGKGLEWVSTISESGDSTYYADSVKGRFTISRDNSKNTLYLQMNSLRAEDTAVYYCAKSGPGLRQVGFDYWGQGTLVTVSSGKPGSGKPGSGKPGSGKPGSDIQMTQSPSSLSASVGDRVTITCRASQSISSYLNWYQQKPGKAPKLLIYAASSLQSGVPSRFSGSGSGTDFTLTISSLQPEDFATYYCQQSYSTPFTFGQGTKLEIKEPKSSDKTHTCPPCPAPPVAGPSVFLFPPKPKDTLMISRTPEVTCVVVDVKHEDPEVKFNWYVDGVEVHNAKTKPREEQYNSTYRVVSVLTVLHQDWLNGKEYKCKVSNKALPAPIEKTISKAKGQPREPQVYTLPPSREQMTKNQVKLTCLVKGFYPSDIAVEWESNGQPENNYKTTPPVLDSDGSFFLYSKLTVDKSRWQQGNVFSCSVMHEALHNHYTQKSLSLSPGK
light: B3 light
notes: 1+1 Fab-scFv-Fc format, heterodimeric IgG1 Fc with FcγR ablation variants; also called αPDL1×αCD28 bsAb; 2G4 H1L1 Fab × 1A7_H1.14_L1 scFv
Kd (human CD28 [2]): 240 nM

B10: XENP37559 (bispecific antibody)
heavy: B3 heavy
scFv-Fc: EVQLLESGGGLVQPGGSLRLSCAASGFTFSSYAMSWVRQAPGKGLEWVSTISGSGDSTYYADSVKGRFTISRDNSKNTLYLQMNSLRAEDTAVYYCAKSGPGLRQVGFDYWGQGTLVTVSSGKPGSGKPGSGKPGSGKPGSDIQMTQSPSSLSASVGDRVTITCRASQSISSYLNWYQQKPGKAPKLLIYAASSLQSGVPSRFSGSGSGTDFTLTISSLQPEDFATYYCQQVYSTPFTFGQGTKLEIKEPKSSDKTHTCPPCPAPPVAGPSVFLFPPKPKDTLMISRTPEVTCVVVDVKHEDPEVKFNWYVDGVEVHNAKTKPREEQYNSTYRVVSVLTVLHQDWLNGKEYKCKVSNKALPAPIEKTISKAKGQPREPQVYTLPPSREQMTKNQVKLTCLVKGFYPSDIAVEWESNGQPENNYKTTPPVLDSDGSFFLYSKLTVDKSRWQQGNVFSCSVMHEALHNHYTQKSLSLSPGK
light: B3 light
notes: 1+1 Fab-scFv-Fc format; also called αPDL1×αCD28 bsAb; 1A7_H1_L1.71
Kd (human CD28 [2]): 180 nM

B13: XENP37560 (bispecific antibody)
heavy: B3 heavy
scFv-Fc: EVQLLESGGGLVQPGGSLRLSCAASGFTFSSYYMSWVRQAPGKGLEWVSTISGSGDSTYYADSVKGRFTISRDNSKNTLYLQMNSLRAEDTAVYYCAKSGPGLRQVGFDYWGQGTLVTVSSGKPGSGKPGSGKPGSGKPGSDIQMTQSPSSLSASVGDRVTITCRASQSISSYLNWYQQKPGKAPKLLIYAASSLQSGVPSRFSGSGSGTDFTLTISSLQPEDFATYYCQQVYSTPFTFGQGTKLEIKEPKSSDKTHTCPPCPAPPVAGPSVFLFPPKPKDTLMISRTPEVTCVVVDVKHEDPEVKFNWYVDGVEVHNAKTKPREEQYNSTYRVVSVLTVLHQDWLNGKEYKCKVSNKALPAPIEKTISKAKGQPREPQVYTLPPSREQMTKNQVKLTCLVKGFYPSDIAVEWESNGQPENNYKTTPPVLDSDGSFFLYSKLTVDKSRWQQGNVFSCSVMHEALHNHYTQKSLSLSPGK
light: B3 light
notes: 1+1 Fab-scFv-Fc format; also called αPDL1×αCD28 bsAb; 1A7_H1.1_L1.71
Kd (human CD28 [2]): 96 nM

Now from value to binder:

binding result [1]: binds
B1: XENP28428 (antibody, V domains shown)
VH: EVQLLESGGGLVQPGGSLRLSCAASGFTFSSYAMSWVRQAPGKGLEWVSTISGSGDSTYYADSVKGRFTISRDNSKNTLYLQMNSLRAEDTAVYYCAKSGPGLRQVGFDYWGQGTLVTVSS
VL: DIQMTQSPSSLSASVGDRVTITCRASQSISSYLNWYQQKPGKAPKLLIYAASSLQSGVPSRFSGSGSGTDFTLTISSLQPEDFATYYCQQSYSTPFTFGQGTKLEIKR
notes: Bivalent mAb, IgG1 backbone with E233P/L234V/L235A/G236del/S267K ablation variant; also called anti-CD28 mAb based on clone 1A7; parental αCD28 mAb 1A7; copies: 2 + 2

binding result [1]: binds
B2: XENP27181 (antibody, human IgG1, kappa, V domains shown)
VH: QVQLQESGPGLVKPSETLSLTCAVSGFSLTSYGVHWIRQPPGKGLEWLGVIWPGGGTNFNSALMSRLTISEDTSKNQVSLKLSSVTAADTAVYYCARDRAYGNYLYAMDYWGQGTLVTVSS
VL: DIQMTQSPSSLSASVGDRVTITCRASESVEYYVTSLMQWYQQKPGKAPKLLIYAASNVDSGVPSRFSGSGSGTDFTLTISSLQPEDIATYYCQQSRKVPFTFGGGTKVEIKR
notes: Bivalent mAb, IgG1 backbone with E233P/L234V/L235A/G236del/S267K ablation variant; also called HuTN228; prior art anti-CD28 mAb HuTN228; copies: 2 + 2

Kd (human PDL1 antigen [4]): 0.42 nM
B7: αPDL1×αCD28 bsAb with PDL1 binding domain 2G4_H1.12_L1.14 and CD28 binding domain 1A7_H1.14_L1.71 (bispecific antibody)
heavy: B3 heavy with S31V, G101L
scFv-Fc: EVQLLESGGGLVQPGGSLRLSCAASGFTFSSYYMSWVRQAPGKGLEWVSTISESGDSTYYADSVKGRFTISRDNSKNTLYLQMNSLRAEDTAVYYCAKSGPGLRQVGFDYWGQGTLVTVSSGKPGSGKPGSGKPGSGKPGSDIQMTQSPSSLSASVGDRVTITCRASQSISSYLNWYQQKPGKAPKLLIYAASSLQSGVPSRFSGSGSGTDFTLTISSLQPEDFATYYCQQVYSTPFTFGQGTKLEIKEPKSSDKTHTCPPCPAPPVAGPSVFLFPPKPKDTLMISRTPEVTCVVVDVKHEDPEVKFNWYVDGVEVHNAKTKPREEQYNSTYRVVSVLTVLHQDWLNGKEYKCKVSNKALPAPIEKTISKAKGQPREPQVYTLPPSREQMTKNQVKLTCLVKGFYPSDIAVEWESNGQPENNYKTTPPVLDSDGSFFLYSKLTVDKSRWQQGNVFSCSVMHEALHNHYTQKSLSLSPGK
light: B3 light with S30Q
notes: also called XENP40409 (non-Xtend analog of XENP40706)

Kd (human PDL1 antigen [4]): 0.8 nM
B9: αPDL1×αCD28 bsAb with PDL1 binding domain 2G4_H1.12_L1.68 and CD28 binding domain 1A7_H1.14_L1.71 (bispecific antibody)
heavy: B3 heavy with S31V, G101L
scFv-Fc: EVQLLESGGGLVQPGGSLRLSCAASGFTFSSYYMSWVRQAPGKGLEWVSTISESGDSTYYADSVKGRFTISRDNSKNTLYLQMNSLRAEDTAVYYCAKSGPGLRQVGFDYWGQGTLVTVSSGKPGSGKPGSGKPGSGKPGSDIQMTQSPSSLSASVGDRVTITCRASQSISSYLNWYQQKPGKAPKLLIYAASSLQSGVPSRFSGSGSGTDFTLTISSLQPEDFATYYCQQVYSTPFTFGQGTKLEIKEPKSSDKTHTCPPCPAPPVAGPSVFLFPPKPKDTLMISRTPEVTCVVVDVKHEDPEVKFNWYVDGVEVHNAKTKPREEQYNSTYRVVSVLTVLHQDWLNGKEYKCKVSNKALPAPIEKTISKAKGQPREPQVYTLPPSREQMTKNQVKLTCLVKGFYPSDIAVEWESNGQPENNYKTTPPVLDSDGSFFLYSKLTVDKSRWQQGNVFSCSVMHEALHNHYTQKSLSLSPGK
light: B3 light with S30Q, S32T

Kd (human PDL1 antigen [5]): 0.17 nM
B11: XENP38514 (bispecific antibody)
heavy: B3 heavy with S31V, G101L
scFv-Fc: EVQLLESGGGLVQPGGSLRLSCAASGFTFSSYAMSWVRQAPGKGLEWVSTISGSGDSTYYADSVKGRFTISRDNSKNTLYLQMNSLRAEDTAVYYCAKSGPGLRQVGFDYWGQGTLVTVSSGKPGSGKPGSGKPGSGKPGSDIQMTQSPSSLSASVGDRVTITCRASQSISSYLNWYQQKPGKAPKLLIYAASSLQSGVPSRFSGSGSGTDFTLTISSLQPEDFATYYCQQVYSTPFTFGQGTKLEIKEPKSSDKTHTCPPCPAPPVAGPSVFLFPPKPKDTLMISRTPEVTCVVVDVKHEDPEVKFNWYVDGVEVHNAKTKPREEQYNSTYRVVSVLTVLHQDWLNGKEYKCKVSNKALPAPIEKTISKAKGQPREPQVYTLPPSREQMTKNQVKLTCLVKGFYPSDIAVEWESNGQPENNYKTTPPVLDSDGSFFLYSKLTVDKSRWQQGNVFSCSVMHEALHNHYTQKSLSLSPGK
light: B3 light with S30Q, S32T, N54V, S57T

Kd (human PDL1 antigen [4]): 0.17 nM
B12: αPDL1×αCD28 bsAb with PDL1 binding domain 2G4_H1.12_L1.24 and CD28 binding domain 1A7_H1.14_L1.71 (bispecific antibody)
heavy: B3 heavy with S31V, G101L
scFv-Fc: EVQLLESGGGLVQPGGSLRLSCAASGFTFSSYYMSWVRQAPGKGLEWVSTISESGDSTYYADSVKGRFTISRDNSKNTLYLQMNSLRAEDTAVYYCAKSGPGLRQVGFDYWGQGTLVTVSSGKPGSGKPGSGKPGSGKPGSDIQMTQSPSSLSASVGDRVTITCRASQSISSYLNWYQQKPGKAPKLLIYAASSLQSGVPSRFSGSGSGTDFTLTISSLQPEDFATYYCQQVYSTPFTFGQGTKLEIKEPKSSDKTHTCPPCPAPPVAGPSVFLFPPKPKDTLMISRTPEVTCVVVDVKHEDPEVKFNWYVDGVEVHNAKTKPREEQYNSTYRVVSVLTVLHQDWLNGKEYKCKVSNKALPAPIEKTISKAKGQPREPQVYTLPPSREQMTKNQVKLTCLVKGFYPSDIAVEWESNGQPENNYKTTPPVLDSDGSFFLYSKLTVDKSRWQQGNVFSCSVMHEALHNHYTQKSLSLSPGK
light: B3 light with S30Q, S32T, N54V, S57T
notes: also called XENP38512; XENP40036
